Assay results taken from patent US20190038582A1 (published 2019).
Where a chain is given by its changes, count along the chain named. Names may count otherwise. Like-named read-outs stand apart in the source and are kept apart here.

Legend:
[1] = target: T1, dephosphorylated Aurora A kinase (Aurora A^122-403) (human, UniProt O14965 122-403); assay: ITC
T1 construct: also called AurA; deP Aurora A^122-403
T1 sequence: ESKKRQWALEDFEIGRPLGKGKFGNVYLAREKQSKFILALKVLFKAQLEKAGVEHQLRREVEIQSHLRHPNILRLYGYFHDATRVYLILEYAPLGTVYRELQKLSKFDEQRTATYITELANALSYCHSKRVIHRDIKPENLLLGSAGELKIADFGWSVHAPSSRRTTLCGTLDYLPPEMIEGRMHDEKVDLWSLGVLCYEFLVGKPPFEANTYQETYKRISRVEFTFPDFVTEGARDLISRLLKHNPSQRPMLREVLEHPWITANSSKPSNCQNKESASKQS
Procedure: Error bars in FIGS. 18D and 18F represent the standard error for the estimate of Kd and are a measure of the goodness of fit of the data. Error bars in FIG. 18C were calculated through jackknifing.
(§1) Titrations were carried out using Nano ITC isothermal titration calorimeter (TA Instruments) and analyzed via the NanoAnalyze software using the independent fit model. Injectant was added in 1 μl volume, every 180 s, with a constant stirring speed at 350 rpm and at 25° C.

[2] = target: T2, dephosphorylated Aurora A kinase (Aurora A^122-403) (UniProt O14965 122-403); assay: ITC
T2 chain: T1 sequence

[3] = target: T2, dephosphorylated Aurora A kinase …; assay: ITC
[4] = target: T3, Aurora A kinase in HEK293 cells (human, UniProt O14965 1-403); assay: immunofluorescence co-localization in HEK293 cells
T3 construct: not on the cell surface; also called Aurora A kinase (endogenous, HEK293)
T3 sequence: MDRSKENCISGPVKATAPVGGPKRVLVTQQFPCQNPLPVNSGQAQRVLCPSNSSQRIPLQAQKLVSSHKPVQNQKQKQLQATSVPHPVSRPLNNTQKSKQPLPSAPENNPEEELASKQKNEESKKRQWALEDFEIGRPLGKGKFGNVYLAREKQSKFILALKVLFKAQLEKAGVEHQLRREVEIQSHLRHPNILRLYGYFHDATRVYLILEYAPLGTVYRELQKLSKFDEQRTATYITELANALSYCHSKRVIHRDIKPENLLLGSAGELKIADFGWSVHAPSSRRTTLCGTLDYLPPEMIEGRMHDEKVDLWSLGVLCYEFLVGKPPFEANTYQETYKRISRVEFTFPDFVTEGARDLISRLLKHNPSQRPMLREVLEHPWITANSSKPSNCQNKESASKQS

[5] = target: T2, dephosphorylated Aurora A kinase …; assay: ITC
[6] = target: T1, dephosphorylated Aurora A kinase …; assay: told with the kinase assay results (FIG. 9); method of the affinity not named there
TPX2 = target: T4, TPX2
T4 chain: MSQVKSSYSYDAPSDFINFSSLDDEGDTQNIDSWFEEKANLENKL

[7] = target: T2, dephosphorylated Aurora A kinase …; assay: ITC
[8] = target: T2, dephosphorylated Aurora A kinase …; assay: ITC
[9] = target: T1, dephosphorylated Aurora A kinase …; assay: ITC; Aurora A pre-saturated with barasertib
Procedure: as §1

B1: TPX2 (other)
chain: T4 chain
notes: also called TPX2 polypeptide
Work on B1 yielded a Kd [1] of ~5000 nM and a Kd [2] of 5400 nM.

B2: sGFP-Mb6 fusion polypeptide (designed binder)
chain: GSVSSVPTKLEVVAATPTSLLISWDAFGHQYEPVYYYRITYGETGGNSPVQEFTVPGYYSTATISGLKPGVDYTITVYAWYVDGSYSSPISINYRT
notes: also called neutral sGFP-Mb6; not shown: supercharged GFP (sGFP)
With B2 the Kd [3] was 27.4 nM and the binding result [4] was “binds”.

B3: monobody Mb2 (aka Mb6) (AuroraA_2) (designed binder)
chain: B2 chain
notes: also called neutral monobody
B3 was tested, and the Kd [5] was 8.7 nM and the binding result [6] was “binds”.

B4: Aurora A T288V mutant (A^122-403 T288V) (protein)
chain: T1 sequence with T167V
For B4, the “kinase activity (phosphorylation of AP peptide)” value (TPX2) was “greatly increased its kinase activity”.

B5: phosphorylated Aurora A kinase (protein)
chain: T1 sequence
B5 was tested, and the “kinase activity (phosphorylation of AP peptide)” value (TPX2) was “only slightly increased kinase activity”.

B6: monobody Mb60 (AuroraA_60) (designed binder)
chain: GSVSSVPTKLEVVAATPTSLLISWDAPAVTVVHYVITYGETGGNSPVQEFTVPGSKSTATISGLKPGVDYTITVYAIDFYWGSYSPISINYRT
notes: FN3-scaffold monobody; also called Mb2 (alternative name herein)
In the case of B6, the binding result [1] is reported as “binds” and the Kd [2] is reported as 1000 nM.

B7: sGFP-Mb60 fusion polypeptide (designed binder)
chain: B6 chain
notes: also called sGFP-Mb2 (aka Mb60); not shown: supercharged GFP (sGFP)
With B7 the binding result [1] was “binds”, the Kd [7] was 2500 nM and the binding result [4] was “binds”.

B8: monobody Mb44 (AuroraA_44) (designed binder)
chain: GSVSSVPTKLEVVAATPTSLLISWDAPAVTVDFYVITYGETGGYSYPWQEFEVPGSKSTATISGLKPGVDYTITVYADYGQYFYSPISINYRT
notes: FN3-scaffold monobody; also called M44
With B8 the Kd [8] was 3280 nM and the “fold weakening of binding affinity (Aurora A pre-saturated with barasertib against Aurora A alone)” value [9] was 5 fold.

B9: monobody Mb54 (AuroraA_54) (designed binder)
chain: GSVSSVPTKLEVVAATPTSLLISWDAQTYQMYDYVSYYRITYGETGGNSPVQEFTVPGYYSTATISGLKPGVDYTITVYAEGYYSSYSPISINYRT
notes: FN3-scaffold monobody; also called Mb1
For B9, the binding result [1] was “binds” and the Kd [2] was 175 nM.

B10: sGFP-Mb54 fusion polypeptide (designed binder)
chain: B9 chain
notes: also called sGFP-Mb54 (aka Mb1); sGFP-Mb1; not shown: supercharged GFP (sGFP)
For B10, the binding result [1] was “binds”, the Kd [3] was 121 nM and the binding result [4] was “binds”.

B11: monobody Mb56 (AuroraA_56) (designed binder)
chain: GSVSSVPTKLEVVAATPTSLLISWDAMSDWYYWVDYYRITYGETGGNSPVQEFTVPGSYSTATISGLKPGVDYTITVYASDDVWGDYSPISINYRT
notes: FN3-scaffold monobody; also called Mb3
With B11 the binding result [1] was “binds” and the Kd [8] was 163 nM.

B12: monobody Mb51 (AuroraA_51) (designed binder)
chain: GSVSSVPTKLEVVAATPTSLLISWDAKPMSYEPVYYYRITYGETGGNSPVQEFTVPGYYSTATISGLKPGVDYTITVYADSMSSYYYSPISINYRT
notes: FN3-scaffold monobody
With B12 the Kd [8] was 76.9 nM and the “fold weakening of binding affinity (Aurora A pre-saturated with barasertib against Aurora A alone)” value [9] was 2.8 fold.
